The supplement of paper PMC12764529
± gives the half width of the 95% confidence interval.

Key:
[1] = folding stability dG unfold from trypsin proteolysis; higher = more stable
In short: (§1)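 Designed mini-proteins (under 80 residues, no cysteine) in a PA-tagged cDNA display construct were digested with trypsin and chymotrypsin. Each protease was used at 11 concentrations (threefold dilutions) plus a no-protease condition, followed by sequencing. K50 was inferred by Bayesian fitting of sequencing counts, and unfolding free energy was derived against a sequence-predicted unfolded-state K50 and a shared folded-state K50, per protease or combined. Only designs with AlphaFold2 dimer inter-PAE above 15 were kept.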

[2] = folding stability dG unfold (combined trypsin and chymotrypsin); higher = more stable
In short: as §1

[3] = folding stability dG unfold from chymotrypsin proteolysis; higher = more stable
In short: as §1

Row | Sequence | folding stability dG unfold [1] [kcal/mol] | folding stability dG unfold [2] [kcal/mol] | folding stability dG unfold [3] [kcal/mol]
1 | SAGGSAGGSKKKYTVEELLKKLKPGDIALVKINGKWREVSVEELKKLPPGAEVEVEVFKLKPPSAGGSAGGS [r12_501_TrROS_Hall] | 2.84 ± 0.11 | 3.34 ± 0.16 | 3.51 ± 0.072
2 | SAGGMPVTVTLDLSDLTPEEIERLLTEAVEAHPDPAAVTVRVKTDDPALEAAVRAAAEALPAVAVTLESAGG [r13_718_JUSTAS] | -0.86 ± 0.54 | 0.0912 ± 0.21 | 0.263 ± 0.051
3 | SAGGKEWYIKVSIEHRNPNNGEKRELSITIPVEGMSAEEALDIARELARHLPPENVKIEVDIVPLDDSAGGS [r16_774_TrROS] | 1.78 ± 0.051 | 1.86 ± 0.17 | 2.08 ± 0.032
4 | SAPPPVQTLTLTVYDPETGRLVKIEVTRRPDGTLEVRVEVVDLETNEVTTETITLPGLTLDELLKLLEEASA [r9_618_TrROS_Hall] | 3.09 ± 0.16 | 3.65 ± 0.16 | 4.02 ± 0.16
5 | SAGGSAGGSAGGMVIRLEDGRTLVFETREEAEEAAKALAEELGLKEVKVEIVEVPLEELPSAGGSAGGSAGG [r7_839_TrROS_Hall] | 2.11 ± 0.073 | 2.4 ± 0.045 | 2.6 ± 0.032
6 | SAGGSAGGSAGGMTIEINGKKYEIVEVKEEKGKLTLKIKVNGKLLEIEIDKDKNEIKIYPSAGGSAGGSAGG [r7_553_TrROS_Hall] | 3.44 ± 0.14 | 3.91 ± 0.14 | 4.05 ± 0.1
7 | SEEELENLPNVVRLELEVEIDGVRVRIETEFRLNEDGSLEVRTRIEVEPLPPPVEVVLDENGELVEVRVESA [r9_456_TrROS_Hall] | 2.81 ± 0.08 | 3.12 ± 0.14 | 3.42 ± 0.13
8 | SMTIKLPSKDFKLETLPDGTIKLTVKEPDGTVVTYTFPKGDKITKIEKITPDTIKLTFEKKPRLNPEILLSA [r9_501_JUSTAS] | 2.16 ± 0.097 | 3.07 ± 0.22 | 3.65 ± 0.053
9 | SAGGSAGGSAGGPYWRVKIEWMDPNGKKKEHTFTFPPGWPLEEIAEELKPNGYKIEVEPLSAGGSAGGSAGG [r7_226_TrROS] | 0.962 ± 0.044 | 1.46 ± 0.085 | 1.7 ± 0.1
10 | SAGGSAGGSAGGSMLVEKKTFKDPKTGKTYIEIVIKDENGNLLSVKILSTEDPEKIEKLLSAGGSAGGSAGG [r7_484_JUSTAS] | 2.15 ± 0.12 | 2.37 ± 0.15 | 2.55 ± 0.037
11 | SAGGSAGGSAGGSVSSVSTTSSPVVDPETGPASTVTTHSVPGGPATTVVMTPDSTTTTGSAGGSAGGSAGGS [r10_384_JUSTAS] | 1.92 ± 0.081 | 1.59 ± 0.074 | 1.43 ± 0.038
12 | SAGGSAGGIEAVREALEDMPPGEEKEITIPVPGDPNYYIKFTIRTKGNKIKIPIEIEPMPPGQMSAGGSAGG [r6_393_TrROS] | 0.632 ± 0.16 | 1.08 ± 0.38 | 1.63 ± 0.39
13 | SAGGSAEVYKVKIKIERVLPNGEKVEEEITIEVEGMSEEELLALARELAAEPGVRIKEIEIEKLPPSAGGSA [r15_550_TrROS_Hall] | 4.82 ± 0.24 | 4.65 ± 0.38 | 4.54 ± 0.19
14 | SKLPPGQPYRRVEMTITFDFKSPKELRKKIRELFGKIEVDMKHNPEDNWYTIDIWFPSPAVMDELKELIFSA [r9_764_TrROS] | 3.06 ± 0.17 | 3.07 ± 0.23 | 3.29 ± 0.061
15 | SAGGEGKEDKKIKVLFINVPVDKPDLLLKLAKEIIEKKEYDIIIVDHPENYKALKEAFPEYDIPIILGSAGG [r13_353_TrMRF] | 2.04 ± 0.064 | 3.29 ± 0.069 | 3.673 ± 0.022
16 | SAGGMYVEVVIDNPDPDISPEELAEEVARELAPDPFEIKPVKIEPELIGGIPKVTILFEVDDPEAVEESAGG [r13_979_TrMRF] | 0.238 ± 0.049 | 0.763 ± 0.056 | 0.958 ± 0.019
17 | SAGGSAPPNWRRIEITFYIPPGQPTVSELADHIAKRIGFPVTGVEIDKVERNPDGAYEVKVSIIVPSAGGSA [r15_654_TrROS] | 2.69 ± 0.056 | 2.75 ± 0.15 | 2.9 ± 0.054
18 | SAGGSAGGSEKVIVVPSEEALKALEDAGIEVKKIEVFTETVTYYYPPGFPPVTETRTYLLVEVSAGGSAGGS [r12_78_TrROS_Hall] | 1.45 ± 0.056 | 1.96 ± 0.083 | 2.26 ± 0.072
19 | SAGGSAGGSAGGSPLPGQPPEVILIKLDKPVKVGQTITLPDGYKLEVNEETGYLLIVKTSAGGSAGGSAGGS [r4_78_TrROS_Hall] | 0.705 ± 0.05 | 0.843 ± 0.051 | 0.992 ± 0.081
20 | SKGTFMAMMPLDEIKEIVENFAKQGWNIKIKPKSIQPFPFPHNDEDGEPEPYPMVMVEVEIKIVPPGDPPSA [r9_991_TrROS] | 1.33 ± 0.024 | 1.64 ± 0.097 | 1.89 ± 0.086
21 | SAGGGPLRTVEVELEFETEEEAEKAIKEYLEKLGLPPEKVEVSFVSREERLVEDKIVYRYKFVFTLPSAGGS [r16_240_JUSTAS] | 4.09 ± 0.13 | 4.98 ± 0.17 | 5.13 ± 0.13
